Source: paper doi:10.1101/276733 (bioRxiv, 2018)

Target: the molecule itself
Assay: cryo-EM structure

B1: Arf1-GTP (natural protein)
chain: not shown
In the case of B1, the “stoichiometry N” value is reported as 3.
